Measured values reported in article doi:10.64898/2025.12.17.694860.

Molecular target: Trypanosoma brucei enolase (Trypanosoma brucei)
Experiment: SEC

- stoichiometry N: 2
Substance: Trypanosoma brucei enolase (enzyme)
